This note sets out measurements from PMC9889334.

The target of series [1] is CBKP2, PaKEOPS complex with PaPcc2 in place of PaPcc1 (PaCgi121/PaBud32/PaKae1/PaPcc2) (Pyrococcus abyssi) (UniProt Q9UXT7). The series can be described thus: SEC-SAXS; purified complexes loaded at 2.55 (CBKP1P2), 0.72 (CBKP1) and 3 mg/ml (CBKP2) on a Bio-SEC3 column; 20 mM Tris pH 8.5, 300 mM NaCl, 5 mM 2-mercaptoethanol, 5% glycerol. A general note: In gel filtration, larger molecules generally elute earlier.

In series [2] the target is PaCgi121;PaBud32;PaKae1;PaPcc1-His6;PaPcc2-Strep (Pyrococcus abyssi;Pyrococcus abyssi;Pyrococcus abyssi;Pyrococcus abyssi;Pyrococcus abyssi) (UniProt Q9UZ62+Q9UYB9+Q9UXT7+Q9V1Z9+A0A915Q984). Description: fluorescence anisotropy. The conditions noted are these: CBKP1P2 complex; 3 mM Mg2+; n=3; 20 mM Tris-HCl pH 8, 150 mM KCl, 3 mM MgCl2, 1% glycerol, 1 nM labelled tRNA (10 nM in Suppl. Fig. 7C), 20 °C, 15 min. A general note: Fluorescence polarisation rises when a labelled molecule tumbles more slowly, as on binding a larger partner.

Series [3] addresses PaCgi121;PaBud32;PaKae1;PaPcc2-His6 (Pyrococcus abyssi;Pyrococcus abyssi;Pyrococcus abyssi;Pyrococcus abyssi) (UniProt Q9UZ62+Q9UYB9+Q9UXT7+A0A915Q983). Description: fluorescence anisotropy. The conditions noted are these: CBKP2 complex; 3 mM Mg2+; 10 nM tRNA (Suppl. Fig. 7C); 20 mM Tris-HCl pH 8, 150 mM KCl, 3 mM MgCl2, 1% glycerol, 1 nM labelled tRNA (10 nM in Suppl. Fig. 7C), 20 °C, 15 min.

Series [4] deals with PaPcc2 with C-terminal hexa-histidine tag (Pyrococcus abyssi Pcc2) (Pyrococcus abyssi). The series can be described thus: SEC; Ni-NTA eluate on HiLoad 16/600 Superdex 200 pg or Superdex 75 pg; 20 mM Tris-HCl pH 8, 500 mM KCl, 10% glycerol, 5 mM ß-mercaptoethanol.

PaCgi121;PaBud32;PaKae1;PaPcc2-His6 (Pyrococcus abyssi;Pyrococcus abyssi;Pyrococcus abyssi;Pyrococcus abyssi), sequence (Q9UZ62 whole entry, chain 1 of 4): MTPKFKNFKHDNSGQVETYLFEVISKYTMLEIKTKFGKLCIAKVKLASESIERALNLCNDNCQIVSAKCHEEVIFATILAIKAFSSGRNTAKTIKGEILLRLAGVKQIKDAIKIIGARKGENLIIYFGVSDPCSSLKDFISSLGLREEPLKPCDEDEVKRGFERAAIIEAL
PaCgi121;PaBud32;PaKae1;PaPcc2-His6 (Pyrococcus abyssi;Pyrococcus abyssi;Pyrococcus abyssi;Pyrococcus abyssi), sequence (Q9UYB9 whole entry, chain 2 of 4): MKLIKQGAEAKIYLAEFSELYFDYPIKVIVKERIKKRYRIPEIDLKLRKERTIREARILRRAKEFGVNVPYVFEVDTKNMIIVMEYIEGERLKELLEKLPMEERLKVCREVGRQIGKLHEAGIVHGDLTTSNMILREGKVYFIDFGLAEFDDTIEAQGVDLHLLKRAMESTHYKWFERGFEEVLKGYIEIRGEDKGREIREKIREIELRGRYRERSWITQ
PaCgi121;PaBud32;PaKae1;PaPcc2-His6 (Pyrococcus abyssi;Pyrococcus abyssi;Pyrococcus abyssi;Pyrococcus abyssi), sequence (Q9UXT7 whole entry, chain 3 of 4): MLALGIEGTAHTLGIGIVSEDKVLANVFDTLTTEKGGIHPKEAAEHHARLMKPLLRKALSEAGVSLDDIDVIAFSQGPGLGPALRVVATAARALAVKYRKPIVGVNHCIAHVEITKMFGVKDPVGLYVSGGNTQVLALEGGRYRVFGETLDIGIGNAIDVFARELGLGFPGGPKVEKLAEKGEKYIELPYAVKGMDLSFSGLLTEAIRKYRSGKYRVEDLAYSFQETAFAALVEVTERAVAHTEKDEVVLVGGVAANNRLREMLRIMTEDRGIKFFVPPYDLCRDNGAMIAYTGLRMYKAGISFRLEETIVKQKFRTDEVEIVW
PaCgi121;PaBud32;PaKae1;PaPcc2-His6 (Pyrococcus abyssi;Pyrococcus abyssi;Pyrococcus abyssi;Pyrococcus abyssi), sequence (chain, as listed by the source, chain 4 of 4): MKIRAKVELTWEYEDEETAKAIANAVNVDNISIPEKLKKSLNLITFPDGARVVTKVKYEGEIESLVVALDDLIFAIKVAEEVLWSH

In series [1], “CBKP2, PaKEOPS complex with PaPcc2 in place of PaPcc1 (PaCgi121/PaBud32/PaKae1/PaPcc2) (from UniProt Q9UXT7 1-324)” returned a stoichiometry N of 2.

Consider “GGGCCGGUAGCUCAGCCUGGUCAGAGCACCGGGCUUUUAACCCGGUGGUCGCGGGUUCAAAUCCCGCCCGGCCCGCCA [Pa_tRNALys (UUU)]”, for which the Kd in series [2] came to 100 nM; in series [3], 1800 nM.

“PaPcc2 with C-terminal hexa-histidine tag (Pyrococcus abyssi Pcc2) (natural protein)” yielded a stoichiometry N in series [4] of 2.

Broadly, the stoichiometry N is a count of units in the complex or per binding partner. As a reminder, the Kd is the free concentration of one partner at which half of the binding sites on the other are occupied at equilibrium, for simple one-to-one binding.
